Source: patent publication US20250262210A1 (TRUSTEES OF COLUMBIA UNIVERSITY IN THE CITY OF NEW YORK, published 2025)

Legend:
Assay in all cases: IP/MS, LZTR1 wild type-FLAG, U87
NCAPD3 = target: T1, NCAPD3 (human, UniProt P42695 1-1498)
T1 sequence (looked up): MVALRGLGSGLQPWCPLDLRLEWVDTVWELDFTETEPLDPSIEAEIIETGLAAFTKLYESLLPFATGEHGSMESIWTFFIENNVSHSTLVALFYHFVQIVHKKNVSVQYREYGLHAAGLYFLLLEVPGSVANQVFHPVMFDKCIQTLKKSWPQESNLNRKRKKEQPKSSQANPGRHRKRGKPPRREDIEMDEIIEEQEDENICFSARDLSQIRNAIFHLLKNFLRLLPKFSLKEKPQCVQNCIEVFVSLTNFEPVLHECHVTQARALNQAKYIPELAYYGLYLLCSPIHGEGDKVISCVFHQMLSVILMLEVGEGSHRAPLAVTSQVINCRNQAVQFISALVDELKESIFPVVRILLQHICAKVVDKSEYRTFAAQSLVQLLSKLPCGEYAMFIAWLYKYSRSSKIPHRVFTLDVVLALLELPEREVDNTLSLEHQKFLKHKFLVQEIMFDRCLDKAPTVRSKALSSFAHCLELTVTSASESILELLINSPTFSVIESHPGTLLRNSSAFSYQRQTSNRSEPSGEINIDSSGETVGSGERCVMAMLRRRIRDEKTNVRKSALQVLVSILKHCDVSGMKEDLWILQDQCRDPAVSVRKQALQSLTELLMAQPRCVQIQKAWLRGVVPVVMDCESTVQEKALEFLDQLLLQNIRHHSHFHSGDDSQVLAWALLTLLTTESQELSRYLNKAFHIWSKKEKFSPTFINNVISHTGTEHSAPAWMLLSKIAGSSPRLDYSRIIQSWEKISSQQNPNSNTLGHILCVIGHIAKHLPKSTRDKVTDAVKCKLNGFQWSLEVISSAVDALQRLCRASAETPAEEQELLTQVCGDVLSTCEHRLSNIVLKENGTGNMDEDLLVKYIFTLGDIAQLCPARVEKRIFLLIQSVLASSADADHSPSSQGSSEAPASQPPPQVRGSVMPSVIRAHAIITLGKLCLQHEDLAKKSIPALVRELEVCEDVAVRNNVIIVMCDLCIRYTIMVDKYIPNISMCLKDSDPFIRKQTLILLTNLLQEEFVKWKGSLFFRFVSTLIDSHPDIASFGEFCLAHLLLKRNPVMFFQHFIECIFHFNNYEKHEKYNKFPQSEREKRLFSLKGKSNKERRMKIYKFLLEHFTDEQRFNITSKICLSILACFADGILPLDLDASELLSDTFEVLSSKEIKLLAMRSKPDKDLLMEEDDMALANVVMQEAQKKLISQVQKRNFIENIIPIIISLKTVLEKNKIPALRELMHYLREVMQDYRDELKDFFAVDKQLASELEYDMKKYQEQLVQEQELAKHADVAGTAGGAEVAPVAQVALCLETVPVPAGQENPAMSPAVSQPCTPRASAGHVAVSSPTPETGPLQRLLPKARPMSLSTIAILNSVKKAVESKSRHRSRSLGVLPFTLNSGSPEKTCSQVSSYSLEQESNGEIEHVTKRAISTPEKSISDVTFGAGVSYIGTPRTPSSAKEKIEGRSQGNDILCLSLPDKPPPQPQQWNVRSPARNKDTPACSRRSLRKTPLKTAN
How it was run: (§1)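 Read-out: spectral counts from LC-MS/MS (Orbitrap Fusion) after MaxQuant identification. Variable modifications were Met oxidation, protein N-terminal acetylation and N/Q deamidation.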

RICTOR = RICTOR (human, UniProt Q6R327 1-1708, limits assumed)
How it was run: as §1

DMXL2 = DMXL2 (human, UniProt Q8TDJ6 1-3036, limits assumed)
How it was run: as §1

Measured: binding result

DMXL2, sequence (Q8TDJ6 whole entry): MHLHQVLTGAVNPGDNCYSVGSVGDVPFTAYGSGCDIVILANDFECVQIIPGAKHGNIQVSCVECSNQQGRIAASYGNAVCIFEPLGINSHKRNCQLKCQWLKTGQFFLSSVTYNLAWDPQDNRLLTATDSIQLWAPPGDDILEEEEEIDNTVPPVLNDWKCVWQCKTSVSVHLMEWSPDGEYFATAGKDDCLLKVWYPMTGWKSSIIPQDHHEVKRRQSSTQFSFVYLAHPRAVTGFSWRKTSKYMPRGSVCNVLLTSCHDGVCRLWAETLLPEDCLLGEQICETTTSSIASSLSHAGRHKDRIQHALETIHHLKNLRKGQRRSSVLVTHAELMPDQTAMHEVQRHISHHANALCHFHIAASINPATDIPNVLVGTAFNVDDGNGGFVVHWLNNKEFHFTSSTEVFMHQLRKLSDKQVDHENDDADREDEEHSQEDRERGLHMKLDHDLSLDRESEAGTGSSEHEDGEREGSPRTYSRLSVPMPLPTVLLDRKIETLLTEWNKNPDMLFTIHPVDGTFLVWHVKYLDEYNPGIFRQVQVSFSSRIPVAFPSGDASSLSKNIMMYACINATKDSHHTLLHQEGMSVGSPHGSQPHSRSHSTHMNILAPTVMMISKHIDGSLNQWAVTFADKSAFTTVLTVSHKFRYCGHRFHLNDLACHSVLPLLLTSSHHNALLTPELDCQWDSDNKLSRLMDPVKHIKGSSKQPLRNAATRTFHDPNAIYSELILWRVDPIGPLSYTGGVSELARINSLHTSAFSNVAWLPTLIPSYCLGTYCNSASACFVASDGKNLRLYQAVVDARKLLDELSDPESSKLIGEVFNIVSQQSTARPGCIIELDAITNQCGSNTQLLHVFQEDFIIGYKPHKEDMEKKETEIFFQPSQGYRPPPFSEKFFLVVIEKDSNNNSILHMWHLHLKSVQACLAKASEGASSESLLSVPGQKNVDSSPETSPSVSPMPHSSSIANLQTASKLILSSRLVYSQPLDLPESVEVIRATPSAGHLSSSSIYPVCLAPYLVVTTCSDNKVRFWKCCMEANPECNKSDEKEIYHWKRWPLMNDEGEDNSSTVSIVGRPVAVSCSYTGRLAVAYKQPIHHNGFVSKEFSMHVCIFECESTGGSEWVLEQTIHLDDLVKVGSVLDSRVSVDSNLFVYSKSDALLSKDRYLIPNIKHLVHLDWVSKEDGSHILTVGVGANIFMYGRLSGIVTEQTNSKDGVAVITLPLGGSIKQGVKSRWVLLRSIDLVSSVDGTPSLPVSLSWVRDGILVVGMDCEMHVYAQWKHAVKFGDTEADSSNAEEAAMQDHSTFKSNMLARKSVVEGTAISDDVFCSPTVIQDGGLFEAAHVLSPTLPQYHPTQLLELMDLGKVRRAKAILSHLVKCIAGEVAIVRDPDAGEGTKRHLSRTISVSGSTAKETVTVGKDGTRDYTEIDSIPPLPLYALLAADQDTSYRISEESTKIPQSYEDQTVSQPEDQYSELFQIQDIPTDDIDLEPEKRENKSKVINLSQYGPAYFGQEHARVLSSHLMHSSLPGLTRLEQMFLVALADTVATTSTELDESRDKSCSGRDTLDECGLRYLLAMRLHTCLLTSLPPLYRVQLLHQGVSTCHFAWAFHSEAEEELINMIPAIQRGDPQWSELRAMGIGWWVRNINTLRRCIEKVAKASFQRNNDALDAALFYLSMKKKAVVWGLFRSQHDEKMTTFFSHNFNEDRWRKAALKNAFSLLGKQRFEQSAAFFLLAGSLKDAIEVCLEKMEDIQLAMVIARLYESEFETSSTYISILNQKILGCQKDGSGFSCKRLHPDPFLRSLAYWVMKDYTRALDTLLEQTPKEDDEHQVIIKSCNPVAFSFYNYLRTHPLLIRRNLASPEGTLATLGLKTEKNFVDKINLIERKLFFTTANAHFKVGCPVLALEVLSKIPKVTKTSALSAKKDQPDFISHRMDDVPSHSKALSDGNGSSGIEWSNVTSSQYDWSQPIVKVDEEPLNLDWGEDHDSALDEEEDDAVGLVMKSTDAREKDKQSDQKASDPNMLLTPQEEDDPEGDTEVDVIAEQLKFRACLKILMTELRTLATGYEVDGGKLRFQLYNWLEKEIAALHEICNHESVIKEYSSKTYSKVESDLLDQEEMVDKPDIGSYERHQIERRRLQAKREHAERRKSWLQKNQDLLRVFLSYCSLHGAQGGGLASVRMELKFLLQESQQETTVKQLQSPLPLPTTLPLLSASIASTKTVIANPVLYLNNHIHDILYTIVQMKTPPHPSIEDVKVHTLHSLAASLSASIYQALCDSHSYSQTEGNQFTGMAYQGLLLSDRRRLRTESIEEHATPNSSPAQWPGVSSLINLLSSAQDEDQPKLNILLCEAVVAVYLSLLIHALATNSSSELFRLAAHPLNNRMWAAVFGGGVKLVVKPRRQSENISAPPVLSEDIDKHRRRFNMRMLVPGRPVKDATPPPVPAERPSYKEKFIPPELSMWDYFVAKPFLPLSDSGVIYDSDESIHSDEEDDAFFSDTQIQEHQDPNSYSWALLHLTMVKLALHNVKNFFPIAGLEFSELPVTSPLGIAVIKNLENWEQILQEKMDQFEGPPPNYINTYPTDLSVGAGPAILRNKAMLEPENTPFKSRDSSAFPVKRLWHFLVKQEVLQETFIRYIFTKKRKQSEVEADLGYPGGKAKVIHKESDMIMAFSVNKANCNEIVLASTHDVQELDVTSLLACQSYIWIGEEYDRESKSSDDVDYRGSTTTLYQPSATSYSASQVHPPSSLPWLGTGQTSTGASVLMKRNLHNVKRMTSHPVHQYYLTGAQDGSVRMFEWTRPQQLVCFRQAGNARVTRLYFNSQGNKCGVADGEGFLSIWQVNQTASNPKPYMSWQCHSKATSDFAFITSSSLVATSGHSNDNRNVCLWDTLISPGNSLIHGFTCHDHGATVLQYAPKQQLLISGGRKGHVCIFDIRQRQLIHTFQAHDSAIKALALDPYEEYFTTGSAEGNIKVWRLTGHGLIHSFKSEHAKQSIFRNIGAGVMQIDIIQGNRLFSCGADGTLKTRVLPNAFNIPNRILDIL
RICTOR, sequence (Q6R327 whole entry): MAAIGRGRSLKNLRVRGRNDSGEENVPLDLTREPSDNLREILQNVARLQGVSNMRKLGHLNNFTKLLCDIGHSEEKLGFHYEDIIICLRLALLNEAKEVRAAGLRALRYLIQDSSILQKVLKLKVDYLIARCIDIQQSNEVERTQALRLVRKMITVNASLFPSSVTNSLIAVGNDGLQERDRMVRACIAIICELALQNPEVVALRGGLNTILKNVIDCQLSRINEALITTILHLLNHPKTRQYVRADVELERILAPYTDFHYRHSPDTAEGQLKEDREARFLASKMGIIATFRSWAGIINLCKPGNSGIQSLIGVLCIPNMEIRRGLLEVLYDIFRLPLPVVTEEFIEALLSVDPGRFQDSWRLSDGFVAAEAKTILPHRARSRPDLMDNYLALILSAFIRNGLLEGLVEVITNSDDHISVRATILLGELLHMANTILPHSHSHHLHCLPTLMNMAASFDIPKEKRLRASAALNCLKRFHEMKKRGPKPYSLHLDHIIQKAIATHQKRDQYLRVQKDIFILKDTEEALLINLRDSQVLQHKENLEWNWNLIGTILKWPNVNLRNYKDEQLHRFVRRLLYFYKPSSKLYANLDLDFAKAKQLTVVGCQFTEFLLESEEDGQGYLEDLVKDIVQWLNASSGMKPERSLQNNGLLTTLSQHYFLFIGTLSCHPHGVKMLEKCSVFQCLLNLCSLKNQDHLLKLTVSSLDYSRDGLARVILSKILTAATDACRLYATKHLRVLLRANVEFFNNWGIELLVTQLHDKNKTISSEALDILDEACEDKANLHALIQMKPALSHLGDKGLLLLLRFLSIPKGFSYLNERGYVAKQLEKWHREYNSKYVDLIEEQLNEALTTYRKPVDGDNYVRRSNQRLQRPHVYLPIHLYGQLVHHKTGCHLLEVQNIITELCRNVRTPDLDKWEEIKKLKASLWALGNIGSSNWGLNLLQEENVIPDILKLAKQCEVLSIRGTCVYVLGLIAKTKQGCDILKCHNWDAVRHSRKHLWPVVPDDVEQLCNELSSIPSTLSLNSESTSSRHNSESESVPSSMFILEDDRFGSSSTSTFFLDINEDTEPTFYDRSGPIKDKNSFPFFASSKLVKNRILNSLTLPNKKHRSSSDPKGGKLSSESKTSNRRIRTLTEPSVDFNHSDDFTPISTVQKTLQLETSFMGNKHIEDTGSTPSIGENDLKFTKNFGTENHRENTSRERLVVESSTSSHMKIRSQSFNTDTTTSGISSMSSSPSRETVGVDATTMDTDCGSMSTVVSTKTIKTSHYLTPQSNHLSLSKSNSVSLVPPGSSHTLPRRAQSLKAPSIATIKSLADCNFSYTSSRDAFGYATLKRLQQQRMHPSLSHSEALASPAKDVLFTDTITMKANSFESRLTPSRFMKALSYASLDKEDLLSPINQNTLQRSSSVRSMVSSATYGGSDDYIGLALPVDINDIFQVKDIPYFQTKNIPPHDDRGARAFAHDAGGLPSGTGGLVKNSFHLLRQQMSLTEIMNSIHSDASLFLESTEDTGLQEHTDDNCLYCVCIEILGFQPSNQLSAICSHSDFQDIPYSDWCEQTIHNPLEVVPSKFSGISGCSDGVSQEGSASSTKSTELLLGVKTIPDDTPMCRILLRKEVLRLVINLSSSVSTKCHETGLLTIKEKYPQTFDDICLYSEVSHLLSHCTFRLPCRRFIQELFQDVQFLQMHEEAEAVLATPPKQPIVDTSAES

B1: LZTR1-FLAG (other, human, UniProt Q8N653 1-840, looked up)
chain: MAGPGSTGGQIGAAALAGGARSKVAPSVDFDHSCSDSVEYLTLNFGPFETVHRWRRLPPCDEFVGARRSKHTVVAYKDAIYVFGGDNGKTMLNDLLRFDVKDCSWCRAFTTGTPPAPRYHHSAVVYGSSMFVFGGYTGDIYSNSNLKNKNDLFEYKFATGQWTEWKIEGRLPVARSAHGATVYSDKLWIFAGYDGNARLNDMWTIGLQDRELTCWEEVAQSGEIPPSCCNFPVAVCRDKMFVFSGQSGAKITNNLFQFEFKDKTWTRIPTEHLLRGSPPPPQRRYGHTMVAFDRHLYVFGGAADNTLPNELHCYDVDFQTWEVVQPSSDSEVGGAEVPERACASEEVPTLTYEERVGFKKSRDVFGLDFGTTSAKQPTQPASELPSGRLFHAAAVISDAMYIFGGTVDNNIRSGEMYRFQFSCYPKCTLHEDYGRLWESRQFCDVEFVLGEKEECVQGHVAIVTARSRWLRRKITQARERLAQKLEQEAAPVPREAPGVAAGGARPPLLHVAIREAEARPFEVLMQFLYTDKIKYPRKGHVEDVLLIMDVYKLALSFQLCRLEQLCRQYIEASVDLQNVLVVCESAARLQLSQLKEHCLNFVVKESHFNQVIMMKEFERLSSPLIVEIVRRKQQPPPRTPLDQPVDIGTSLIQDMKAYLEGAGAEFCDITLLLDGHPRPAHKAILAARSSYFEAMFRSFMPEDGQVNISIGEMVPSRQAFESMLRYIYYGEVNMPPEDSLYLFAAPYYYGFYNNRLQAYCKQNLEMNVTVQNVLQILEAADKTQALDMKRHCLHIIVHQFTKVSKLPTLRSLSQQLLLDIIDSLASHISDKQCAELGADI
notes: Expressed in HEK 293T, HeLa or U87 cells; used as cell lysate; also called LZTR1 wild type-FLAG; LZTR1 WT; not shown: FLAG tag at the C-terminus
binds: all assays above
